Consider 53 sequences from the supplement of paper PMC9233669.

In one data set the test system is biotinyl-Trp-oxazolone. Put plainly: self-aminoacylation, catalytic enhancement (BWO) (fold over background); higher = more active; k-Seq, kA / k0A0; sequences stand for … in GGGAAUGGAUCCACAUCUACGAAUUC…UUCACUGCAGACUUGACGAAGCUG
The method, boiled down: (§1)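 Mutagenized RNA pools (0.43 μM; 21-nt variable region) were treated with 2–1250 μM of each biotinyl-aminoacyl-oxazolone. Conditions were 50 μL HEPES/NaCl/KCl/MgCl2/CaCl2 buffer, 5% acetonitrile, pH 6.9–7.0, room temperature, 90 minutes. Catalytic enhancement, the median kA relative to the uncatalyzed rate, was derived from streptavidin capture, qPCR and Illumina sequencing.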

The subject of a further data set is biotinyl-Phe-oxazolone. The experiment in a line: self-aminoacylation, catalytic enhancement (BFO) (fold over background); higher = more active; k-Seq, kA / k0A0; sequences stand for … in GGGAAUGGAUCCACAUCUACGAAUUC…UUCACUGCAGACUUGACGAAGCUG
The method, boiled down: as §1

Fewer inactive variants are shown than the library holds.

For “CUACUUCAAACAAUCUCUCUG [Fam1A.1 aminoacylation ribozyme variant]”, the self-aminoacylation with biotinyl-Trp-oxazolone turned out to be 4.21; in the data set with biotinyl-Phe-oxazolone, 10.1.

Regarding “CCAUACUUCAAACAAUCGGUC [Fam1B.1 aminoacylation ribozyme variant]”, the self-aminoacylation with biotinyl-Trp-oxazolone came to 30.3; in the data set on biotinyl-Phe-oxazolone it was 66.4.

“ACUCACUUCAAGCAAUCGGUC [Fam1B.1 aminoacylation ribozyme variant]”: the self-aminoacylation was 5.36 in the data set on biotinyl-Trp-oxazolone and 9.3 with biotinyl-Phe-oxazolone.

For “CUACUUCAAAUAAUCGGUUUG [Fam1A.1 aminoacylation ribozyme variant]”, the self-aminoacylation turned out to be 8.58 in the data set on biotinyl-Trp-oxazolone and 16 with biotinyl-Phe-oxazolone.

In the case of “CAAGACUUCAAGCAAUCGGUC [Fam1B.1 aminoacylation ribozyme variant]”, the results for the self-aminoacylation in the data set with biotinyl-Trp-oxazolone and in the data set with biotinyl-Phe-oxazolone were 9.73 and 15.3, respectively.

As for “AAGUGUGCUAAUAGUCGAAAG [Fam3.1 aminoacylation ribozyme variant]”, the self-aminoacylation was 4.55 with biotinyl-Trp-oxazolone and 11.5 in the data set on biotinyl-Phe-oxazolone.

In the case of “AUACUUCAAACAAUCGGUCUC [Fam1A.1 aminoacylation ribozyme variant]”, the figures for the self-aminoacylation in the data set on biotinyl-Trp-oxazolone and in the data set with biotinyl-Phe-oxazolone were 7.89 and 13.5, respectively.

Take “CAACUUCAAACGAUCGGUCUG [Fam1A.1 aminoacylation ribozyme variant]”: the values for the self-aminoacylation with biotinyl-Trp-oxazolone and in the data set with biotinyl-Phe-oxazolone were 2.65 and 2.25, respectively.

On to “CCCCACUUUAAGCAAUCGGUC [Fam1B.1 aminoacylation ribozyme variant]”, for which the self-aminoacylation in the data set with biotinyl-Trp-oxazolone came to 2.1; in the data set with biotinyl-Phe-oxazolone, 2.4.

Take “CUAGUUCAAACAAUCGGUCUG [Fam1A.1 aminoacylation ribozyme variant]”: the self-aminoacylation in the data set on biotinyl-Trp-oxazolone was 6.47; with biotinyl-Phe-oxazolone, 11.

Turning to “CUCCCUCAAACAAUCGGUCUG [Fam1A.1 aminoacylation ribozyme variant]”, the self-aminoacylation amounted to 3.48 with biotinyl-Trp-oxazolone and 3.26 in the data set with biotinyl-Phe-oxazolone.

On to “CUAGUUCAAUCAAUCGGUCUG [Fam1A.1 aminoacylation ribozyme variant]”, for which the values for the self-aminoacylation in the data set on biotinyl-Trp-oxazolone and in the data set with biotinyl-Phe-oxazolone were 2.63 and 3.97, respectively.

Consider “CUACUUCAAACAAUCGGUCGU [Fam1A.1 aminoacylation ribozyme variant]”, for which the self-aminoacylation with biotinyl-Trp-oxazolone stood at 10.3; with biotinyl-Phe-oxazolone, 16.3.

For “UCACACUUCAAGGAAUCGGUC [Fam1B.1 aminoacylation ribozyme variant]”, the results for the self-aminoacylation in the data set with biotinyl-Trp-oxazolone and with biotinyl-Phe-oxazolone were 3.91 and 5.43, respectively.

For “GCACAUUUCAAGCAAUCGGUC [Fam1B.1 aminoacylation ribozyme variant]”, the figures for the self-aminoacylation in the data set with biotinyl-Trp-oxazolone and in the data set with biotinyl-Phe-oxazolone were 3.16 and 3.69, respectively.

On to “AAGUCUACUAAUAGUCGCAAG [Fam3.1 aminoacylation ribozyme variant]”, for which the self-aminoacylation amounted to 2.11 with biotinyl-Trp-oxazolone and 3.17 in the data set with biotinyl-Phe-oxazolone.

As for “AAGUUUGCUAAUAGCCGCAAG [Fam3.1 aminoacylation ribozyme variant]”, the self-aminoacylation turned out to be 2.2 in the data set with biotinyl-Trp-oxazolone and 6.96 with biotinyl-Phe-oxazolone.

Take “UCAUACUUCAAGCAAUCGGUC [Fam1B.1 aminoacylation ribozyme variant]”: the self-aminoacylation in the data set with biotinyl-Trp-oxazolone was 9.74; with biotinyl-Phe-oxazolone, 16.9.

Take “UUAAUUCAAACAAUCGGUCUG [Fam1A.1 aminoacylation ribozyme variant]”: the figures for the self-aminoacylation in the data set with biotinyl-Trp-oxazolone and in the data set with biotinyl-Phe-oxazolone were 2.47 and 3.57, respectively.

Turning to “UUACUUCAAAUAAUCGGUCUG [Fam1A.1 aminoacylation ribozyme variant]”, the self-aminoacylation came out at 7.5 in the data set on biotinyl-Trp-oxazolone and 10.3 with biotinyl-Phe-oxazolone.

Take “AAGUUUCCUAAUAGUCGCACG [Fam3.1 aminoacylation ribozyme variant]”: the results for the self-aminoacylation in the data set with biotinyl-Trp-oxazolone and with biotinyl-Phe-oxazolone were 2.23 and 2.96, respectively.

Consider “CCACUUCAAAUAAUCGGUCUG [Fam1A.1 aminoacylation ribozyme variant]”, for which the self-aminoacylation in the data set on biotinyl-Trp-oxazolone was found to be 15.2; in the data set on biotinyl-Phe-oxazolone it was 17.9.

Take “AAGAUUGCUAAUAGUCGUAAG [Fam3.1 aminoacylation ribozyme variant]”: the self-aminoacylation in the data set on biotinyl-Trp-oxazolone is 2.41; in the data set on biotinyl-Phe-oxazolone it was 9.9.

As to “AAGUUUGCUAGUAGUCGCACG [Fam3.1 aminoacylation ribozyme variant]”, the results for the self-aminoacylation in the data set on biotinyl-Trp-oxazolone and in the data set with biotinyl-Phe-oxazolone were 2.21 and 3.09, respectively.

Regarding “CUACUUCAACCAAUCGGUUUG [Fam1A.1 aminoacylation ribozyme variant]”, the values for the self-aminoacylation in the data set on biotinyl-Trp-oxazolone and with biotinyl-Phe-oxazolone were 10.8 and 17, respectively.

In the case of “AAAUUUGCUAAUAGUCGCAAG [Fam3.1 aminoacylation ribozyme variant]”, the self-aminoacylation with biotinyl-Trp-oxazolone stood at 2.13; in the data set on biotinyl-Phe-oxazolone, 4.

On to “CCACCCUUCAAUCAAUCGGUC [Fam1B.1 aminoacylation ribozyme variant]”, for which the figures for the self-aminoacylation with biotinyl-Trp-oxazolone and in the data set on biotinyl-Phe-oxazolone were 20.9 and 28.6, respectively.

For “CUCCUUCAAAGAAUCGGUCUG [Fam1A.1 aminoacylation ribozyme variant]”, the self-aminoacylation in the data set on biotinyl-Trp-oxazolone was 5.66; in the data set on biotinyl-Phe-oxazolone, 6.59.

On to “CCCCACUUCUAGCAAUCGGUC [Fam1B.1 aminoacylation ribozyme variant]”, for which the figures for the self-aminoacylation with biotinyl-Trp-oxazolone and with biotinyl-Phe-oxazolone were 2.23 and 2.55, respectively.

As to “CUACACUUCAAGCAAUCGGUC [Fam1B.1 aminoacylation ribozyme variant]”, the self-aminoacylation worked out at 22.8 with biotinyl-Trp-oxazolone and 54.5 with biotinyl-Phe-oxazolone.

For the sequence “UUACUUCAAACAAUCAGUCUG [Fam1A.1 aminoacylation ribozyme variant]”, the self-aminoacylation in the data set on biotinyl-Trp-oxazolone is 9.66; in the data set on biotinyl-Phe-oxazolone it was 20.1.

For “CGACCCUUCAAGCAAUCGGUC [Fam1B.1 aminoacylation ribozyme variant]”, the self-aminoacylation was determined as 3.13 in the data set on biotinyl-Trp-oxazolone and 3.2 with biotinyl-Phe-oxazolone.

Consider “AUGACCCUGGUCAUCGAGUCA [Fam2.1 aminoacylation ribozyme variant]”, for which, in the data set with biotinyl-Trp-oxazolone, the self-aminoacylation is 2.12.

With “CUAGUUCAAACAAUCGGUUUG [Fam1A.1 aminoacylation ribozyme variant]”, the self-aminoacylation in the data set with biotinyl-Trp-oxazolone was 3.41; in the data set on biotinyl-Phe-oxazolone, 4.59.

For “GCACACUUCAAGCAAUCAGUC [Fam1B.1 aminoacylation ribozyme variant]”, the results for the self-aminoacylation in the data set with biotinyl-Trp-oxazolone and in the data set on biotinyl-Phe-oxazolone were 4.94 and 9.69, respectively.

Consider “GCACACUUCAAGCAAUCGGUC [Fam1B.1 aminoacylation ribozyme variant]”, for which the self-aminoacylation came to 19.8 in the data set on biotinyl-Trp-oxazolone and 32.3 with biotinyl-Phe-oxazolone.

In the case of “CUACUUCAAACAAUCGGUCAG [Fam1A.1 aminoacylation ribozyme variant]”, the self-aminoacylation came out at 7.09 in the data set on biotinyl-Trp-oxazolone and 16.7 in the data set on biotinyl-Phe-oxazolone.

For the sequence “CAACGUCAAACAAUCGGUCUG [Fam1A.1 aminoacylation ribozyme variant]”, the values for the self-aminoacylation in the data set on biotinyl-Trp-oxazolone and with biotinyl-Phe-oxazolone were 2.6 and 3.29, respectively.

Turning to “UAGUUUGCUAAUAGUCGGAAG [Fam3.1 aminoacylation ribozyme variant]”, the self-aminoacylation came out at 2.37 in the data set on biotinyl-Trp-oxazolone and 6.04 in the data set on biotinyl-Phe-oxazolone.

On to “CCACUCUUCAAGGAAUCGGUC [Fam1B.1 aminoacylation ribozyme variant]”, for which the values for the self-aminoacylation in the data set with biotinyl-Trp-oxazolone and with biotinyl-Phe-oxazolone were 3.24 and 3, respectively.

As to “CUGGUUCAAACAAUCGGUCUG [Fam1A.1 aminoacylation ribozyme variant]”, the self-aminoacylation in the data set with biotinyl-Trp-oxazolone came out at 9.11; in the data set with biotinyl-Phe-oxazolone it was 14.

As to “CCACACUCCAACCAAUCGGUC [Fam1B.1 aminoacylation ribozyme variant]”, the self-aminoacylation in the data set with biotinyl-Trp-oxazolone is 2.18; in the data set with biotinyl-Phe-oxazolone, 3.55.

Turning to “CCACACUUCAACCAAUCGGUU [Fam1B.1 aminoacylation ribozyme variant]”, the self-aminoacylation worked out at 11.9 in the data set with biotinyl-Trp-oxazolone and 12.3 in the data set with biotinyl-Phe-oxazolone.

On to “CCACUUCAAACGAUCGGUCUG [Fam1A.1 aminoacylation ribozyme variant]”, for which the self-aminoacylation was 2.62 in the data set on biotinyl-Trp-oxazolone and 3.03 with biotinyl-Phe-oxazolone.

As to “CCACGCCUCAAGCAAUCGGUC [Fam1B.1 aminoacylation ribozyme variant]”, the self-aminoacylation turned out to be 6.73 in the data set with biotinyl-Trp-oxazolone and 10.4 in the data set with biotinyl-Phe-oxazolone.

In the case of “AAGAUUGCUUAUAGUCGCAAG [Fam3.1 aminoacylation ribozyme variant]”, the self-aminoacylation is 2.35 in the data set with biotinyl-Trp-oxazolone and 2.44 with biotinyl-Phe-oxazolone.

As for “CCAGACUUCAAGGAAUCGGUC [Fam1B.1 aminoacylation ribozyme variant]”, the self-aminoacylation with biotinyl-Trp-oxazolone amounted to 5.9; with biotinyl-Phe-oxazolone it was 6.35.

In the case of “UUUCUUCAAACAAUCGGUCUG [Fam1A.1 aminoacylation ribozyme variant]”, the values for the self-aminoacylation in the data set with biotinyl-Trp-oxazolone and in the data set on biotinyl-Phe-oxazolone were 5.16 and 7.67, respectively.

In the case of “CUACAGUUCAAGCAAUCGGUC [Fam1B.1 aminoacylation ribozyme variant]”, the self-aminoacylation in the data set with biotinyl-Trp-oxazolone stood at 2.96; in the data set on biotinyl-Phe-oxazolone it was 4.84.

Consider “CUUCUUCAAACAAUCGGUCUA [Fam1A.1 aminoacylation ribozyme variant]”, for which the self-aminoacylation in the data set with biotinyl-Trp-oxazolone came to 4.8; with biotinyl-Phe-oxazolone, 11.4.

For “AAGUUUUCUAUUAGUCGCAAG [Fam3.1 aminoacylation ribozyme variant]”, the self-aminoacylation in the data set with biotinyl-Trp-oxazolone is 2.07; in the data set with biotinyl-Phe-oxazolone, 2.22.

Regarding “AUUACCGUGGUCAUCGAGCGA [Fam2.1 aminoacylation ribozyme variant]”, the self-aminoacylation in the data set with biotinyl-Trp-oxazolone amounted to 2.2.

As to “GUUCACCUAGGUCAUCGGGAG [Fam2.2 aminoacylation ribozyme variant]”, the self-aminoacylation in the data set with biotinyl-Trp-oxazolone amounted to 2.13.
